Non-standard residues stand in square brackets, D forms with d. No end group written: not given here. pY = N[C@@H](Cc1ccc(OP(=O)(O)O)cc1)C(=O)O
Key:
[1] = target: GST-fused pK15 cytoplasmic tail (pK15 CT WT), phosphorylated in vitro by Src (UniProt Q9QR69); assay: AlphaLISA; conditions: read off a plot
[2] = target: GST-pK15 CT N2 truncation mutant, phosphorylated in vitro by 2xStrep-Src (UniProt Q9QR69); assay: AlphaLISA; conditions: parent: est. 17000; read off a plot
[3] = system: PLCγ1 tSH2 domain (Src-mediated phosphorylation, Y^783); assay: in vitro Src kinase assay, PLCγ1 tSH2 Y783 phosphorylation; format: biochemical; conditions: 0.6 μM tSH2, 0.085 μM Src, 1.25–5 μM peptide or fixed 5.0 μM; 37°C; 1 hour or 45 min (method); pY783 Western blot
Procedure: Fig 7 The pK15 CT domain enhances Src-mediated phosphorylation of the PLCγ1 tSH2 domain. (A) The purified PLCγ1 tSH2 domain (0.6 μM) was incubated with limiting amounts (0.085 μM) of recombinant purified Src kinase expressed in insect cells in the presence of increasing concentrations (1.25–5 μM) of phosphorylated peptides representing the last 12 (pK15 12mer) or 35 (pK15 35mer) amino acids of the pK15 cytoplasmic domain for 1 hour at 37°C. The reaction was stopped using SDS sample buffer and analysed by SDS-PAGE and Western blot using an antibody to the PLCγ1 pY^783 residue (top panel) or to the His tag on the recombinant tSH2 domain (bottom panel). (B) Same as above, except that a fixed concentration (5.0 μM) of the 12mer peptide, the 35mer peptide or the pK15 truncation construct GST-pK15 CT^N2 [51] were used. The increased phosphorylation of the tSH2 domain in the presence of the 35mer peptide and pK15 CT^N2 can be seen. (C) Increasing concentrations of the phosphorylated pK15 12mer peptide were used to inhibit the increased src-mediated phosphorylation of tSH2 induced by 2.5 μM of the pK15 35mer peptide. Experimental conditions were as in panel A.
To test the impact of a pK15 CT fragment (pK15 CT^N2) or phosphorylated pK15 peptides representing the last 12 (DDLp[…]) or 35 ([…]pYEEVLFRN) amino acids of pK15 CT on the Src-mediated phosphorylation of the PLCγ1 tSH2 domain, GST-pK15CT^N2 was first phosphorylated with Src in vitro as described in the preceding paragraph. Phosphorylated GST-pK15 CT^N2 or the phosphorylated pK15 peptides, suspended in 50 mM Tris pH7.4, 300 mM NaCl, 1 mM DTT, were then added to the purified recombinant tSH2 domain (0.6 μM) together with a limiting amount of recombinant Src kinase (0.085 μM) in kinase buffer (20 mM Tris pH7.4, 20 mM NaCl, 1 mM DTT, 10 mM MgCl2, 0.2 mM ATP, 0.5 mM Sodium orthovanadate, 0.5 mM β-glycerophosphate) and the reaction allowed to proceed for 45 min. The reaction mix was then analysed by Western blot using an antibody to the phosphorylated Y^783 in the linker region of the PLCγ1 tSH2 domain and an antibody to the 5x His tag. To test the inhibitory effect of the phosphorylated 12mer pK15 peptide on the enhancement of PLCγ1 tSH2 domain phosphorylation induced by the pK15 35mer peptide, increasing concentrations (1.25–5.0 μM) of the 12mer peptide were added to a reaction mix containing the purified recombinant tSH2 domain (2.5 μM), the phosphorylated pK15 35mer (2.5 μM), and recombinant Src kinase (0.085 μM). Following a 45 min incubation at 37°C, the reaction mixture was analysed by Western blot as above.

[4] = target: T1, PLCγ1 tSH2 R694L (aa 545-790) (UniProt P19174 545-790, R694L); assay: microfluidic diffusional sizing (Fluidity One-W); 200 nM 5,6-FAM peptide held constant, PLCγ1 domains varied from 0 nM to 8000 nM, room temperature, 100 mM MES, 150 mM NaCl, 3 mM TCEP, pH 6.5; hydrodynamic radius fitted; triplicate; conditions: both partners purified
T1 construct: source: E. coli BL21(DE3), purified (HisTrap, 3C cleavage, SEC)
T1 sequence (looked up): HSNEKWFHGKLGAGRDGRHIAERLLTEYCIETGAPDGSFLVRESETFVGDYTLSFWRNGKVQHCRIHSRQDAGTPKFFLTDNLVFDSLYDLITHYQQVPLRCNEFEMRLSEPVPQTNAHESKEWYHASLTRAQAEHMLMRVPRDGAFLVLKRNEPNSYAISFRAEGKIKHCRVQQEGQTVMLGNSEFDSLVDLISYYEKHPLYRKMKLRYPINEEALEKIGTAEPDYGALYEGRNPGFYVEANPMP

[5] = target: T2, PLCγ1 nSH2 domain (aa 545-662) (UniProt P19174 545-662); assay: as above; conditions: both partners purified
T2 construct: 15N-labelled for the NMR titration; source: E. coli BL21(DE3), purified (HisTrap, 3C cleavage, SEC)
T2 sequence (looked up): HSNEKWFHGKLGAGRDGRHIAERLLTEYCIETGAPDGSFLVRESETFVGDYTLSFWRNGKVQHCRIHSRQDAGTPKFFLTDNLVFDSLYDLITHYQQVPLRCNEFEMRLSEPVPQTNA

[6] = target: T3, PLCγ1 tSH2 domain (aa 545-790) (UniProt P19174 545-790); assay: as above; conditions: both partners purified
T3 construct: also called WT tSH2; source: E. coli BL21(DE3), purified (HisTrap, 3C cleavage, SEC)
T3 sequence (looked up): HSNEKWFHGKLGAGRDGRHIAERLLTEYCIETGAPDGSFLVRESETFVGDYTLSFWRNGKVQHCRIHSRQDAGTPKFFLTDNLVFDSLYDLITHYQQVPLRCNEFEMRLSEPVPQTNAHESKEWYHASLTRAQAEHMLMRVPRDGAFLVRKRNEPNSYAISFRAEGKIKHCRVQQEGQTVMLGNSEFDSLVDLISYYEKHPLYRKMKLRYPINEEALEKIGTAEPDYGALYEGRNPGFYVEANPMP

[7] = target: T4, PLCγ1 tSH2 R586L (aa 545-790) (UniProt P19174 545-790, R586L); assay: as above; conditions: both partners purified
T4 construct: source: E. coli BL21(DE3), purified (HisTrap, 3C cleavage, SEC)
T4 sequence (looked up): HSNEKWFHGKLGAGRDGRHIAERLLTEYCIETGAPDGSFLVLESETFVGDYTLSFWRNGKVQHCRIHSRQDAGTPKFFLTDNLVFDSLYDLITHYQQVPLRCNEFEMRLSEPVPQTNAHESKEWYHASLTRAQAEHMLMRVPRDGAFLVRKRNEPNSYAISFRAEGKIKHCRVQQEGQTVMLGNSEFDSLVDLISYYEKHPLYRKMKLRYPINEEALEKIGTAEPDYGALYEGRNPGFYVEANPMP

[8] = target: T5, PLCγ1 cSH2 domain (aa 668-790) (UniProt P19174 668-790); assay: as above; conditions: both partners purified
T5 construct: PLCγ1 C-terminal SH2 domain with the cSH2-SH3 linker, residues 668-790; 15N-labelled for the NMR titration; also called cSH2 (668–790); source: E. coli BL21(DE3), purified (HisTrap, 3C cleavage, SEC)
T5 sequence (looked up): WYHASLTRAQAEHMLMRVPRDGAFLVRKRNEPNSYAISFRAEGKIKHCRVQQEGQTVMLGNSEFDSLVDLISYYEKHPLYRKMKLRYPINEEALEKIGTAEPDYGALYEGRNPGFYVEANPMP

[9] = target: T6, GST-fused pK15 cytoplasmic tail (pK15 CT WT), phosphorylated in vitro by Src, Q9QR69; assay: AlphaLISA; conditions: chain shown with the change;, read off a plot
T6 chain: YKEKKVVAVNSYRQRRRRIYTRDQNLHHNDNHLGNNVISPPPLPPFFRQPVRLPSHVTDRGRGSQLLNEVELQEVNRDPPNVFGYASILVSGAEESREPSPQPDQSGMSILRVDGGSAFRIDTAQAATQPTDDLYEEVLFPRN

[10] = target: T7, GST-pK15 CT N2 truncation mutant, phosphorylated in vitro by 2xStrep-Src, Q9QR69; assay: AlphaLISA; conditions: chain shown with the change;, read off a plot
T7 chain: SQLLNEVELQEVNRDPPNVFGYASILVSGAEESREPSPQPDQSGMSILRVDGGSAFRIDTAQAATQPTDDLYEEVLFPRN

“His-tagged purified PLCγ1 SA (γ-specific array) R694L” gave a response ([1]; parent: est. 4000) of 1400.

“His-tagged purified PLCγ1 SA (γ-specific array) R586L; R694L” gave a response ([1]; parent: est. 4000) of 700.

With “His-tagged purified PLCγ1 tandem SH2 (tSH2) domain R694L” the response ([1]; parent: est. 13000) was 850.

“His-tagged purified PLCγ1 tandem SH2 (tSH2) domain R586L; R694L” was tested, and the response ([1]; parent: est. 13000) was 350.

Molecule “His-tagged purified PLCγ1 cSH2 domain R694L” has a response [2] of 250 and a response ([1]; parent: est. 19000) of 1000.

“SILRVDGGSAFRIDTAQAATQPTDDLpYEEVLFRN [pK15 35mer, phosphorylated pK15 peptide corresponding to the last 35 amino acids of pK15 CT]” was tested, and the “effect on Src-mediated phosphorylation of PLCγ1 tSH2” value [3] was “enhanced the Src-mediated phosphorylation of the PLCγ1 tSH2 domain in a dose dependent manner”.

B1: 5,6-FAM-labelled phosphorylated pK15 12mer peptide (peptide)
peptide: {5,6‑FAM}-DDL[pY]EEVLFPRN
notes: last 12 residues of KSHV pK15 cytoplasmic tail; also called 5,6-FAM-labelled pK15 (12mer); phosphorylated pK15 peptide; source: synthetic peptide, bought: Caslo ApS
For B1, the Kd [4] was 6320 ± 475 nM, the Kd [5] was 180 ± 43 nM and the Kd [6] was 1500 ± 450 nM. For the same molecule, the Kd [7] was 440 ± 77 nM and the Kd [8] was 166 ± 30 nM.

B2: His-tagged purified PLCγ1 SA (γ-specific array) R586L (protein)
chain: SIKNGILYLEDPVNHEWYPHYFVLTSSKIYYSEETSSDQGNEDEEEPKEVSSSTELHSNEKWFHGKLGAGRDGRHIAERLLTEYCIETGAPDGSFLVLESETFVGDYTLSFWRNGKVQHCRIHSRQDAGTPKFFLTDNLVFDSLYDLITHYQQVPLRCNEFEMRLSEPVPQTNAHESKEWYHASLTRAQAEHMLMRVPRDGAFLVRKRNEPNSYAISFRAEGKIKHCRVQQEGQTVMLGNSEFDSLVDLISYYEKHPLYRKMKLRYPINEEALEKIGTAEPDYGALYEGRNPGFYVEANPMPTFKCAVKALFDYKAQREDELTFIKSAIIQNVEKQEGGWWRGDYGGKKQLWFPSNYVEEMVNPVALEPEREHLDENSPLGDLLRGVLDVPACQIAIRPEGKNNRLFVFSISMASVAHWSLDVAADSQEELQDWVKKIREVAQ
B2 was tested, and the response ([9]; parent: est. 4000) was 3800 and the response ([10]; parent: est. 700) was 300.

B3: His-tagged purified PLCγ1 tandem SH2 (tSH2) domain R586L (protein)
chain: HSNEKWFHGKLGAGRDGRHIAERLLTEYCIETGAPDGSFLVLESETFVGDYTLSFWRNGKVQHCRIHSRQDAGTPKFFLTDNLVFDSLYDLITHYQQVPLRCNEFEMRLSEPVPQTNAHESKEWYHASLTRAQAEHMLMRVPRDGAFLVRKRNEPNSYAISFRAEGKIKHCRVQQEGQTVMLGNSEFDSLVDLISYYEKHPLYRKMKLRYPINEEALEKIGTAEPDYGALYEGRNPGFYVEANPMP
In the case of B3, the response ([9]; parent: est. 13000) is reported as 9800 and the response ([10]; parent: est. 14000) is reported as 12000.
